We go through 167 variants from the Human Domainome abundance scans (Beltran et al. 2025).

The chains are these.
B1: Chromodomain-helicase-DNA-binding protein 4, residues 365 to 417; numbered along this chain, Q14839 (parent)
chain: YETDHQDYCEVCQQGGEIILCDTCPRAYHMVCLDPDMEKAPEGKWSCPHCEKE

± gives the uncertainty stated by the source.

In this data set the parent is B1. The data set is described as follows: abundance fitness (aPCA) (normalised: wild type 0, dead -1); higher = more abundant; growth selection in yeast, the domain comes from the species named. Particulars: Homo sapiens.
Consider C24Y, for which the abundance fitness was -1.31 ± 0.25. The result for C24A reads -1.1 ± 0.15; that for C24N, -0.401 ± 0.22.

For the variant C24T, the abundance fitness is -0.768 ± 0.21.

Regarding C24P, the abundance fitness was -0.652 ± 0.17. The result for C24R reads -0.775 ± 0.11; that for C24G, -0.695 ± 0.1.

C24Q: the abundance fitness is -1.15 ± 0.28. In the case of C24D it was -0.647 ± 0.2. In the case of C24S it was -0.681 ± 0.15; in that of C24E, -0.822 ± 0.17.

Consider C24W, for which the abundance fitness was -0.901 ± 0.16. In the case of C24L it was -1.19 ± 0.16.

Consider C24I, for which the abundance fitness is -1.18 ± 0.36. Regarding C24V, the abundance fitness is -0.99 ± 0.13. Consider C24M, for which the abundance fitness is -0.751 ± 0.15.

Consider C24F, for which the abundance fitness was -0.882 ± 0.27. In the case of G15K it was -0.033 ± 0.25; in that of G15N, -0.328 ± 0.3; in that of G15W, -0.216 ± 0.14. In the case of G15D it was 0.176 ± 0.14; in that of G15T, -0.003 ± 0.14. The result for G15L reads -0.052 ± 0.12; that for G15A, -0.028 ± 0.12; that for G15M, -0.028 ± 0.18. With G15I, the abundance fitness is -0.664 ± 0.33. In the case of G15P, the abundance fitness is -0.136 ± 0.23. In the case of G15R it was 0.075 ± 0.095. In the case of G15C, the abundance fitness is -0.524 ± 0.17. For the variant G15E, the abundance fitness was -0.162 ± 0.12.

With G15S, the abundance fitness is -0.013 ± 0.11. The result for G15F reads -0.178 ± 0.21; that for G15Q, -0.046 ± 0.17; that for G15Y, -0.571 ± 0.23. The result for R26A reads -0.137 ± 0.11; that for R26I, -0.014 ± 0.15; that for R26E, -0.356 ± 0.17. The result for R26M reads 0.183 ± 0.14; that for R26P, -0.348 ± 0.17. In the case of R26L, the abundance fitness is -0.231 ± 0.1. The result for R26C reads -0.462 ± 0.16; that for R26V, -0.226 ± 0.1.

Turning to R26F, the abundance fitness is -0.288 ± 0.14. In the case of R26D it was -0.249 ± 0.17; in that of R26Y, -0.413 ± 0.21. The result for R26G reads -0.112 ± 0.094; that for R26K, -0.065 ± 0.17. The result for R26T reads -0.191 ± 0.12.

R26W: the abundance fitness was -0.791 ± 0.15.

Take R26S: the abundance fitness was -0.134 ± 0.11. The result for R26H reads -0.273 ± 0.23; that for C21F, -1.11 ± 0.26. Regarding C21A, the abundance fitness is -0.882 ± 0.14. The result for C21N reads -0.983 ± 0.27; that for C21E, -0.893 ± 0.19. The result for C21T reads -0.467 ± 0.19; that for C21Y, -0.765 ± 0.23; that for C21R, -0.743 ± 0.13. In the case of C21P it was -1.11 ± 0.24; in that of C21L, -1.06 ± 0.15; in that of C21V, -0.877 ± 0.13. In the case of C21K, the abundance fitness is -0.734 ± 0.17. The result for C21S reads -0.889 ± 0.17; that for C21M, -0.911 ± 0.17; that for C21Q, -0.468 ± 0.27. Take C21I: the abundance fitness is -0.802 ± 0.36. The result for C21D reads -0.657 ± 0.21. The result for C21W reads -0.738 ± 0.14; that for I18Q, -0.14 ± 0.14. The result for I18Y reads -0.231 ± 0.17; that for I18D, -0.058 ± 0.14; that for I18M, 0.022 ± 0.11. Regarding I18S, the abundance fitness is -0.081 ± 0.1. The result for I18G reads -0.042 ± 0.087; that for I18K, -0.305 ± 0.18.

For the variant I18E, the abundance fitness came to 0.046 ± 0.15. In the case of I18F it was 0.158 ± 0.16; in that of I18V, -0.161 ± 0.1. For the variant I18C, the abundance fitness was -0.216 ± 0.12. Turning to I18A, the abundance fitness is -0.123 ± 0.12. In the case of I18R it was -0.06 ± 0.086; in that of I18W, -0.218 ± 0.1. The result for I18H reads -0.408 ± 0.3. In the case of I18T it was 0.221 ± 0.15; in that of I18P, -0.369 ± 0.14. With I19G, the abundance fitness was -0.137 ± 0.079. In the case of I19A it was 0.085 ± 0.097. In the case of I19R it was 0.022 ± 0.094; in that of I19Y, -0.629 ± 0.41. The result for I19W reads -0.199 ± 0.11; that for I19M, 0.277 ± 0.17; that for I19C, -0.25 ± 0.19.

Turning to I19F, the abundance fitness is -0.404 ± 0.3.

As for I19P, the abundance fitness was -0.849 ± 0.19. With I19Q, the abundance fitness was -0.124 ± 0.18. In the case of I19S it was -0.143 ± 0.13. In the case of I19L, the abundance fitness is -0.145 ± 0.11.

Regarding I19T, the abundance fitness was -0.101 ± 0.12.

Regarding I19N, the abundance fitness was -0.097 ± 0.22. The result for I19D reads -0.154 ± 0.15. The result for I19E reads -0.07 ± 0.13. The result for I19K reads 0.127 ± 0.14. On to T23L, for which the abundance fitness is -0.107 ± 0.12. In the case of T23Y it was -0.296 ± 0.18.

Take T23D: the abundance fitness was -0.052 ± 0.14.

As for T23K, the abundance fitness is -0.219 ± 0.2. The result for T23N reads -0.201 ± 0.24; that for T23F, -0.099 ± 0.15; that for T23S, 0.033 ± 0.12. Consider T23M, for which the abundance fitness is -0.297 ± 0.18. The result for T23A reads -0.459 ± 0.13; that for T23R, -0.363 ± 0.11; that for T23Q, -0.107 ± 0.18. The result for T23P reads -0.922 ± 0.23; that for T23I, -0.236 ± 0.14; that for T23H, 0.312 ± 0.2.

As to T23C, the abundance fitness is -0.257 ± 0.13. The result for T23V reads -0.231 ± 0.12. As to T23W, the abundance fitness is -0.327 ± 0.17. For the variant T23G, the abundance fitness is -0.189 ± 0.098.

Q14F: the abundance fitness stood at 0.06 ± 0.14. The result for Q14I reads -0.084 ± 0.15. The result for Q14K reads 0.002 ± 0.16; that for Q14R, 0.162 ± 0.083; that for Q14H, -0.23 ± 0.26. Consider Q14Y, for which the abundance fitness is -0.338 ± 0.23. In the case of Q14L, the abundance fitness is -0.347 ± 0.11. The result for Q14C reads -0.337 ± 0.12; that for Q14G, -0.013 ± 0.11; that for Q14S, -0.239 ± 0.095. The result for Q14W reads -0.342 ± 0.13; that for Q14P, -0.826 ± 0.19.

Regarding Q14A, the abundance fitness was -0.307 ± 0.17.

Take Q14E: the abundance fitness came out at 0.223 ± 0.28. In the case of Q14N it was -0.362 ± 0.16; in that of A27G, -0.162 ± 0.099; in that of A27Y, 0.086 ± 0.15.

For the variant A27L, the abundance fitness is -0.15 ± 0.094. The result for A27K reads -0.238 ± 0.18; that for A27P, -0.262 ± 0.17. Consider A27D, for which the abundance fitness is -0.545 ± 0.2. On to A27W, for which the abundance fitness was -0.257 ± 0.13. The result for A27E reads -0.672 ± 0.14; that for A27T, -0.094 ± 0.12. In the case of A27S it was -0.088 ± 0.13. In the case of A27I it was -0.421 ± 0.14; in that of A27C, -0.02 ± 0.2; in that of A27H, -0.276 ± 0.18. Consider A27Q, for which the abundance fitness is -0.424 ± 0.16. In the case of A27N it was -0.165 ± 0.16; in that of A27F, -0.172 ± 0.17; in that of A27V, -0.077 ± 0.1.

As for G16A, the abundance fitness is -0.114 ± 0.1.

Consider G16T, for which the abundance fitness turned out to be 0.242 ± 0.12. In the case of G16K it was 0.026 ± 0.16; in that of G16D, 0.29 ± 0.17; in that of G16V, -0.341 ± 0.1. Take G16M: the abundance fitness is -0.095 ± 0.16. The result for G16Y reads -0.262 ± 0.32. In the case of G16P it was -0.347 ± 0.12; in that of G16C, -0.32 ± 0.2; in that of G16F, -0.469 ± 0.26.

For G16H, the abundance fitness is -0.12 ± 0.2.

With G16I, the abundance fitness is -0.08 ± 0.22. The result for G16S reads 0.069 ± 0.098.

As for G16R, the abundance fitness was 0.009 ± 0.082.

Take G16Q: the abundance fitness was determined as 0.036 ± 0.14.
